One substance from paper PMC3605045, “GH1-family 6-P-β-glucosidases from human microbiome lactic acid bacteria” (Acta Crystallographica Section D: Biological Crystallography, 2013) can be followed below.

The target of the experiment is 6-P-β-glucosidase from Lactobacillus plantarum WCFS1 (LpPgb1) (Lactobacillus plantarum WCFS1). Put plainly: SEC; Superdex 200 16/60, 20 mM HEPES-NaOH pH 8.0, 250 mM NaCl, 2 mM DTT, proteins ~3 mg/ml, 1 ml/min, calibrated with ferritin, aldolase, conalbumin and ovalbumin; oligomeric state from the elution volume.

In general, stoichiometry N refers to the number of molecules, sites or subunits per partner or assembly. In turn, “6-P-β-glucosidase from Lactobacillus plantarum WCFS1 (LpPgb1) (enzyme)” registered a stoichiometry N of 2.
